From article PMC7768483, “Gbx2 Is Required for the Migration and Survival of a Subpopulation of Trigeminal Cranial Neural Crest Cells” come the findings set out here.

The data set addresses GBX2 (full-length) (mouse, UniProt P48031 1-348). Kind of data set: EMSA; 720 nM GBX2, 940 pM probe; supershift with GBX2 antibody; 2X binding buffer: 20 mM Tris-HCl pH 7.4, 50 mM KCl, 1 mM DTT, 10% glycerol, 200 µg/mL BSA, 2.2 µg/mL poly dI/dC; 30 min at 25 °C; 6% native PAGE, Tris-glycine. Particulars: protein: recombinant; label: 32P end label (probe); blunt.

Chain of GBX2 (full-length) (P48031 whole entry): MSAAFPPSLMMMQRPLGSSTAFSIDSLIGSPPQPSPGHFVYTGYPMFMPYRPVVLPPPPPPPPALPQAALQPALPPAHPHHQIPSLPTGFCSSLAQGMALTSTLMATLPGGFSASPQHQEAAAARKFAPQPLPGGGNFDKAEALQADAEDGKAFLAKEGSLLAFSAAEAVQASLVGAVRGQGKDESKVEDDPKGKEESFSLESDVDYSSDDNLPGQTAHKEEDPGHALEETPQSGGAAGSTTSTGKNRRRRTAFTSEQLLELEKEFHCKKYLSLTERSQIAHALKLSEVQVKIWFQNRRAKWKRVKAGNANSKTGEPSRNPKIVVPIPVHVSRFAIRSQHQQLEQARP

B1: NRP1 oligonucleotide (dsDNA)
DNA 1: AACATTCCAAAAATTATCAACCATTTCAGGAATACATTTCATAAAAGCTAGATTGAGTTCTGCTTGTTTTTTATT
DNA 2: AATAAAAAACAAGCAGAACTCAATCTAGCTTTTATGAAATGTATTCCTGAAATGGTTGATAATTTTTGGAATGTT
B1: the binding result is listed as “binds”.
